The values that follow come from patent US20220153839A1 (NBE THERAPEUTICS, published 2022).

One assay addresses T1, hROR2-ECD-HIS (human, UniProt Q01974).
T1 construct: extracellular domain; also called hROR2-His; purified extracellular domain of hROR2
In words: Western blot of denatured, reduced samples; anti-human Fcγ-HRP. An excerpt: The Western blots contained the following samples as indicated: Lane 1: K562 cells ectopically expressing full length of hROR1. Lane 2: untransfected K62 cells. Lane 3: purified extracellular domain of hROR1. Lane 4: purified extracellular domain of hROR2.
Western blotting: Cells or proteins were lysed by 1× sample buffer (containing 1% β-mercaptoethanol) and boiled before running on NuPAGE Novex 4-12% Bis-Tris gels (Invitrogen).
In general terms: In western blotting, separated proteins are transferred to a membrane and probed.

In the next assay the target is T2, hROR2 (human, UniProt Q01974).
T2 construct: full length, on the cell surface; also called 63-12 / hROR2; ROR2 on T47D cells
Nature of the assay: flow cytometry on T47D cells (ROR2 positive, ROR1 negative); APC goat anti-human Fcγ. On the procedure:
Flow cytometry: Cells were stained using standard flow cytometry methodology. Briefly, for purified anti-ROR1 Fab (FIG. 3), 0.1-1×10⁶ cells were stained with 1000 ng/100 μL of Fab on ice for 1 h. After washing twice with ice-cold flow cytometry buffer (PBS containing 1% (v/v) BSA, 0.1% sodium azide and 1 mM EDTA), the cells were incubated with a 1:1000 dilution of a mouse anti-His tag mAb conjugated to Alexa Fluor 488 (Qiagen) in 100 μL flow cytometry buffer on ice for 30 min. For purified anti-ROR1 IgG1 (FIG. 8), 0.1-1×10⁶ cells were blocked by 4% goat serum for 15 min at room temperature and then incubated with 100 ng/100 μL of IgG on ice for 1 h. After washing twice with ice-cold flow cytometry buffer, cells were stained with a 1:500 dilution of goat anti-human IgG, Fcγ pAbs conjugated to APC (Jackson ImmunoResearch) in 100 μL flow cytometry buffer on ice for 30 min. For commercial goat anti human ROR1 polyclonal antibody (FIG. 8), 0.1-1×10⁶ cells were stained with 200 ng/100 μL of Ab on ice for 1 h. […] Finally, 4′,6-diamidino-2-phenylindole (DAPI) was added to a final concentration of 100 ng/mL to exclude dead cells from the analysis. Cells were analyzed using a FACSCalibur instrument (BD Biosciences) and FlowJo analytical software (Tree Star, Ashland, Oreg.).
(In general: A flow cytometer gives signals particle by particle.)

Assay [1] addresses T3, human ROR2 on HEK293 cells (cell microarray) (human, UniProt Q01974 34-943).
T3 construct: whole, on cells; Expressed on fixed HEK293 cells of the Retrogenix microarray
Nature of the assay: cell microarray (Retrogenix): fixed HEK293 cells over-expressing the protein; AlexaFluor647 anti-human IgG Fc detection. As to the method:
(§1) ZsGreen1 signals on the left indicate the expression levels of the various human membrane proteins.
(§2) FIG. 28 provides an overview of the Retrogenix Cell Microarray Platform. […] An AlexaFluor647 anti-human IgG Fc detection antibody was used. Primary hits (duplicate spots) were identified by analyzing fluorescence (AlexaFluor647 and ZsGreen1) on ImageQuant. Vectors encoding all hits were sequenced to confirm their correct identities. […] Slides were analyzed as before (FIG. 29).

The target in assay [2] is T4, human CD20 on HEK293 cells (cell microarray) (human, UniProt P11836 1-297).
T4 construct: whole, on cells; Expressed on fixed HEK293 cells of the Retrogenix microarray
T4 sequence (looked up): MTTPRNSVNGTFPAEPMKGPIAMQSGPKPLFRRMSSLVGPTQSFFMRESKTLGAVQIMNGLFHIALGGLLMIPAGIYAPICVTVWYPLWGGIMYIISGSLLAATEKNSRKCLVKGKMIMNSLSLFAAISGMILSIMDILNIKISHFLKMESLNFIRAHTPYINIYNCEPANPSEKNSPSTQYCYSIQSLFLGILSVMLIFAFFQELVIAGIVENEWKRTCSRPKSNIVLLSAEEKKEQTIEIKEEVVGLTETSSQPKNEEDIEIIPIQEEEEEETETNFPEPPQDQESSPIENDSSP
The description is as above. As to the method:
as §1, §2

Assay [3] has as its target T5, StrepII-tagged human ROR1 extracellular domain (human, UniProt Q01973 30-406).
T5 construct: extracellular domain; also called ROR1-strep; strep-tagged human ROR1
In words: SPR (Biacore T200); mAb captured by goat anti-human Fcγ IgG on CM5; ROR1-strep as analyte (Example 8); second of two independent measurements; batch of the parental IgG not stated. On the procedure:
(§3) Affinity screening was then performed to select the best binders. Affinities were determined using a Biacore T200 instrument (GE Healthcare, Buckinghamshire, UK) and data was evaluated using Biacore Evaluation T200 V2.0 software. To capture mAbs, goat α-human Fc-gamma-specific IgG (Jackson ImmunoResearch, #109-005-098) was covalently immobilized on a CM5 chip (GE Healthcare, #BR-1005-30).
Briefly, for capturing mAbs in HEK293T supernatants, the undiluted supernatants were captured with a flow of 30 μl/min for 120 s.
In general terms: In SPR one partner is held on a chip, and binding of the other changes the refractive index at the surface.

Assay [4] deals with T5, StrepII-tagged human ROR1 extracellular …. Nature of the assay: SPR (Biacore T200); mAb captured by goat anti-human Fcγ IgG on CM5; ROR1-strep as analyte (Example 8); first of two independent measurements; batch of the parental IgG not stated. On the procedure:
as §3

T5 sequence (Q01973 other isoform, or with tags, fused parts or gaps): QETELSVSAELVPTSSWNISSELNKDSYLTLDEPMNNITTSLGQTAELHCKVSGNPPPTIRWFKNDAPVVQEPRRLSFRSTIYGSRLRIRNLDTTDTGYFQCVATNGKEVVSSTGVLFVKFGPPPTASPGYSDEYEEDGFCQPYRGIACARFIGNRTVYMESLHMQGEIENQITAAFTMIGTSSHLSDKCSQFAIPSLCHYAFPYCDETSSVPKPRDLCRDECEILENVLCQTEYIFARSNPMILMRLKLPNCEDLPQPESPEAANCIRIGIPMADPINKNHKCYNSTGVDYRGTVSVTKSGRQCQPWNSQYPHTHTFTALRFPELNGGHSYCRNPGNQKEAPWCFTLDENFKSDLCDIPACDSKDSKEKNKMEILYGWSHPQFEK
T1 sequence (Q01974 34-403): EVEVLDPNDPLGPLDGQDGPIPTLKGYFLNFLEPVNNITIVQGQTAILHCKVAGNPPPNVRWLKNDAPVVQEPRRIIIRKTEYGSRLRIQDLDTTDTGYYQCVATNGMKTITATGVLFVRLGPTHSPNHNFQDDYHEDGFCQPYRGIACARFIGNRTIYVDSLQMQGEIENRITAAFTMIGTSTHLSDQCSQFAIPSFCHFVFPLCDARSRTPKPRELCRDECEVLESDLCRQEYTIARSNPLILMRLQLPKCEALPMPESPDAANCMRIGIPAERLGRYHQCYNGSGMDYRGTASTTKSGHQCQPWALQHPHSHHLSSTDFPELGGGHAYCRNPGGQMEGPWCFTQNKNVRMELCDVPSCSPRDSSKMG
T2 sequence (Q01974 34-943 limits assumed): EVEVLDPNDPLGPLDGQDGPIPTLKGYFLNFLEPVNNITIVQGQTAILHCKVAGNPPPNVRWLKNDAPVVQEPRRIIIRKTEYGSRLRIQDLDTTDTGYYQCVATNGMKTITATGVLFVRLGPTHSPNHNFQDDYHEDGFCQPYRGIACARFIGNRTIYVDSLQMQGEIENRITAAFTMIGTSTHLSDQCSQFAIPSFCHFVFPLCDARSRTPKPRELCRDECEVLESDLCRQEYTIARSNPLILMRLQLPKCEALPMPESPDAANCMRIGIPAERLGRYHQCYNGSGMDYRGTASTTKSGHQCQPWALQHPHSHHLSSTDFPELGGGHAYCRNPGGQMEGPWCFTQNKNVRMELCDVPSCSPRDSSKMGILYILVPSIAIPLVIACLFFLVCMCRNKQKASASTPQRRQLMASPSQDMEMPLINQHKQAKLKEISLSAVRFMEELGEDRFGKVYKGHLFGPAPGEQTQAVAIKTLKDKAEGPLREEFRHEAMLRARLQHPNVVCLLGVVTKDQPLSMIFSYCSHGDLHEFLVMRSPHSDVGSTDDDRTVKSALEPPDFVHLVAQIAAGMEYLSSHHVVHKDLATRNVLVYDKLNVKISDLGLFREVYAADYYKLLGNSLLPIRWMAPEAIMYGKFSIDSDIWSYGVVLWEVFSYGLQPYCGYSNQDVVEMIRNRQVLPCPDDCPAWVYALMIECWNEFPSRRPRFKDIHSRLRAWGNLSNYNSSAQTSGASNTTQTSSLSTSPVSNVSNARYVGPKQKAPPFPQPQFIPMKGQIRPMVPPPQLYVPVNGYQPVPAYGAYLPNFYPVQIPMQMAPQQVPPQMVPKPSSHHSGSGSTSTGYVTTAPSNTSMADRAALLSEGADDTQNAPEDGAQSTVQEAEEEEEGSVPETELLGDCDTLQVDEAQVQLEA
T3 sequence (Q01974 34-943): as the sequence (Q01974 34-943 limits assumed) above

B1: XBR1-402 chimeric rabbit/human IgG1 (antibody, V domains shown)
VH: QEQQKESGGGLFKPTDTLTLTCTASGFDISSYYMSWVRQAPGNGLEWIGAIGISGNAYYASWAKSRSTITRNTNLNTVTLKMTSLTAADTATYFCARDHPTYGMDLWGPGTLVTVSS
VL: SYELTQLPSVSVSLGQTARITCEGNNIGSKAVHWYQQKPGLAPGLLIYDDDERPSGVPDRFSGSNSGDTATLTISGAQAGDEADYYCQVWDSSAYVFGGGTQLTVTG
notes: Rabbit variable domains on human IgG1 constant regions (vector PIGG), lambda light chain, from HEK 293F cells, Protein A purified
Turning to B1, the binding result with hROR2-ECD-HIS was “no binding (tested: 2 µg/mL)”; with hROR2, “no binding (tested: 100 ng/100 µL)”; in assay [1], “no binding (tested: 20 µg/mL)”; in assay [2], “no binding (tested: 20 µg/mL)”. In addition, the Kd in assay [3] and in assay [4] was 5.1 nM each time. For the same molecule, the koff was 0.00556 s⁻¹ in assay [3] and 0.00591 s⁻¹ in assay [4]. Also, the kon in assay [3] turned out to be 1.1e+06 M⁻¹ s⁻¹; in assay [4], 1.16e+06 M⁻¹ s⁻¹.

Broadly, the Kd is the equilibrium constant for the complex coming apart. The term koff denotes the first-order rate constant of dissociation. The term kon denotes the rate constant with which the complex forms.
